Substitutions are numbered along the chain they refer to.
B1: Ab-9 humanized antibody (antibody, human IgG2, kappa)
heavy: QVTLKESGPVLVKPTETLTLTCTVSGFSLPNYGVHWVRQPPGKALEWLAVIWSGGSTNYAAAFVSRLRISKDTSKSQVVFTMNNMDPVDTATYYCARNHDNPYNYAMDYWGQGTTVTVSSASTKGPSVFPLAPCSRSTSESTAALGCLVKDYFPEPVTVSWNSGALTSGVHTFPAVLQSSGLYSLSSVVTVPSSNFGTQTYTCNVDHKPSNTKVDKTVERKCCVECPPCPAPPVAGPSVFLFPPKPKDTLMISRTPEVTCVVVDVSHEDPEVQFNWYVDGVEVHNAKTKPREEQFNSTFRVVSVLTVVHQDWLNGKEYKCKVSNKGLPAPIEKTISKTKGQPREPQVYTLPPSREEMTKNQVSLTCLVKGFYPSDIAVEWESNGQPENNYKTTPPMLDSDGSFFLYSKLTVDKSRWQQGNVFSCSVMHEALHNHYTQKSLSLSPGK
light: DIVLTQSPASLAVSPGQRATITCRANKSVSTSTYNYLHWYQQKPGQPPKLLIYLASNLASGVPARFSGSGSGTDFTLTINPVEANDTANYYCQHSRDLPPTFGQGTKLEIKRTVAAPSVFIFPPSDEQLKSGTASVVCLLNNFYPREAKVQWKVDNALQSGNSQESVTEQDSKDSTYSLSSTLTLSKADYEKHKVYACEVTHQGLSSPVTKSFNRGEC
notes: human constant regions, kappa light chain
B2: Ab-10 humanized antibody (antibody, human IgG2, kappa)
heavy: QVQLVESGGGVVQPGRSLRLSCAASGFSLSNYGVHWVRQAPGKGLEWLAVIWSGGSTNYAAAFVSRLTISKDNSKNTVYLQMNSLRAEDTAVYYCARNHDNPYNYAMDYWGQGTTVTVSSASTKGPSVFPLAPCSRSTSESTAALGCLVKDYFPEPVTVSWNSGALTSGVHTFPAVLQSSGLYSLSSVVTVPSSNFGTQTYTCNVDHKPSNTKVDKTVERKCCVECPPCPAPPVAGPSVFLFPPKPKDTLMISRTPEVTCVVVDVSHEDPEVQFNWYVDGVEVHNAKTKPREEQFNSTFRVVSVLTVVHQDWLNGKEYKCKVSNKGLPAPIEKTISKTKGQPREPQVYTLPPSREEMTKNQVSLTCLVKGFYPSDIAVEWESNGQPENNYKTTPPMLDSDGSFFLYSKLTVDKSRWQQGNVFSCSVMHEALHNHYTQKSLSLSPGK
light: DIVLTQSPDSLAVSLGERATINCRADKSVSTSTYNYLHWYQQKPGQPPKLLIYLASNLASGVPDRFSGSGSGTDFTLTISSLQAEDVAVYYCQHSRDLPPTFGQGTKLEIKRTVAAPSVFIFPPSDEQLKSGTASVVCLLNNFYPREAKVQWKVDNALQSGNSQESVTEQDSKDSTYSLSSTLTLSKADYEKHKVYACEVTHQGLSSPVTKSFNRGEC
notes: as for B1
B3: Ab-11 humanized antibody (antibody, human IgG2, kappa, V domains shown)
VH: QVQLVESGGGVVQPGRSLRLSCAASGFTLPNYGVHWVRQAPGKGLEWLAVIWSGGSTNYAAAFVSRLTISKDNSKNTVYLQMNSLRAEDTAVYYCARNHDNPYNYAMDYWGQGTTVTVSS
VL: DIVLTQSPDSLAVSLGERATINCRANKSVSTSTYNYLHWYQQKPGQPPKLLIYLASNLASGVPDRFSGSGSGTDFTLTISSLQAEDVAVYYCQHSRDLPPTFGQGTKLEIKR
notes: as for B1
B4: Anti-c-Met antibody Ab-10-toxin MC-MMAF conjugate (antibody, human IgG2, kappa, V domains shown)
VH: B3 VH with T28S, P30S
VL: B3 VL with N26D
modifications: MC-MMAF coupled through a propyl mercaptan linker put on the antibody; average y=1.7 per antibody; chain and residues not stated
B5: Anti-c-Met antibody Ab-10-toxin conjugate (Example 24) (antibody, V domains shown)
VH: B3 VH with T28S, P30S
VL: B3 VL with N26D
modifications: toxin intermediate 12h (maleimidocaproyl derivative of toxin 12g) coupled through a propyl mercaptan linker put on the antibody; average y=1.6 per antibody; chain and residues not stated

Tests used:
[1] = molecular target: T1, Human c-Met ECD His Tag (Human c-Met ECD-his) recombinant protein (human, UniProt P08581 25-932); assay: ELISA, human c-Met-His coated at 2 ug/ml
T1 construct: extracellular domain; Expressed in 293F cells; also called human c-Met-His; not shown: C-terminal His tag

[2] = molecular target: T2, Human c-Met extracellular region (ECD) and murine Fc region fusion protein (Human c-Met ECD-mFc) (human, UniProt P08581 25-932); assay: blocking ELISA of HGF/c-Met binding: c-Met ECD-mFc coated, antibody titrated, human HGF 20 ng/ml
T2 construct: extracellular domain; Expressed in 293F cells; not shown: murine Fc region
Procedure: c-Met ECD-mFc (Example 1) was diluted in PBS (Hyclone, Cat #SH30256.01B) with a final concentration of 2 μg/ml, and then a 96-well ELISA plate (Costar, cat#2592) was coated with c-Met ECD-mFc at room temperature overnight. The plate was washed with PBST (PBS+0.05% tween 20, Simga, Cat#P1379) 3 times on a plate washer (Suppler: BioTex; Model: ELX405; S/N: 251504). 300 μl blocking solution PBS+1% BSA (Roche, Cat #738328) was added to the 96-well plate, and the plate was incubated for 60 minutes at 37° C. After the plate was washed with PBST 3 times, 50 μl of antibody diluted by blocking solution was added to the 96-well plate, and the plate was incubated for 90 minutes at 37° C. […] After the plate was washed with PBST 3 times, 100 μl of horseradish peroxidase (ebioscience, #18-4100-51) diluted with blocking solution was added to the 96-well plate and incubated for 30 minutes. After the plate was washed with PBST 3 times, 100 μl substrate (ebioscience, cat#00-4201-56) was added to the plate and incubated for 10 minutes at room temperature. 100 μl stop solution (2N H₂SO₄) was added, and data was read by a […] microplate reader (Supplier: Moleculer Devices; Model: MNR0643; Equip ID: TMRP001). Data analysis was performed by SoftMax Pro v5.

[3] = molecular target: T3, Human c-Met extracellular Sema region and Flag-His tag (Human c-Met Sema-Flis) (human, UniProt P08581 25-515, limits assumed); assay: SPR (Biacore), antibody captured by anti-human IgG, Sema-His 200-0.78 nM as analyte, 1:1 Langmuir
T3 construct: domain: extracellular Sema region; Expressed in 293F cells; also called Sema-His; c-Met antigen Sema-His; not shown: C-terminal Flag-His tag
Procedure: Anti-mouse IgG (GE Life Sciences catalog # BR-1008-38) or anti-human IgG (GE Life Sciences catalog # BR-1008-39) antibodies were respectively diluted to 30 μg/ml and 50 μg/ml by sodium acetate solution, pH 5.0 (GE Healthcare, Cat#BR-1003-51). An amino coupling kit (GE Life Sciences, Cat#BR100050) was immobilized onto the test channels and control channels on a CMS chip (GE Life Sciences catalog # BR-1000-12), and the coupling level was set at 15000RU. Running buffer PBS (Hyclone, Cat#SH30256.01B)+0.05% P20 (GE Life Sciences, Cat#BR-1000-54) was used to dilute the c-Met antibody to 1.5 μg/ml. Antigen Sema-His was diluted to 200 nM with running buffer, and then diluted at a 1:2 dilution with the same buffer until it reached 0.78 nM. The diluted antibody passed through the test channel for 1 minute at a speed of 30 μl/min, and the antigen passed through the test channels and control channels for 3 minutes at the same speed. After 10 minutes of dissociation, the flow speed was adjusted to 10 μl/min, and regeneration buffer was passed through test channels and control channels for 3 minutes. Data was fitted by BiaEvaluation 4.1 after double deduction, and the fitting model was a 1:1 Langmuir model.

[4] = molecular target: T4, human c-Met expressed on cells (human, UniProt P08581 25-1390); assay: cell-based or functional assay
[5] = molecular target: T4, human c-Met expressed on cells; assay: cell-based or functional assay; remark: listed apart in the source
[6] = molecular target: T4, human c-Met expressed on cells; assay: cell-based or functional assay; remark: listed apart in the source

T4 sequence (P08581 25-1390): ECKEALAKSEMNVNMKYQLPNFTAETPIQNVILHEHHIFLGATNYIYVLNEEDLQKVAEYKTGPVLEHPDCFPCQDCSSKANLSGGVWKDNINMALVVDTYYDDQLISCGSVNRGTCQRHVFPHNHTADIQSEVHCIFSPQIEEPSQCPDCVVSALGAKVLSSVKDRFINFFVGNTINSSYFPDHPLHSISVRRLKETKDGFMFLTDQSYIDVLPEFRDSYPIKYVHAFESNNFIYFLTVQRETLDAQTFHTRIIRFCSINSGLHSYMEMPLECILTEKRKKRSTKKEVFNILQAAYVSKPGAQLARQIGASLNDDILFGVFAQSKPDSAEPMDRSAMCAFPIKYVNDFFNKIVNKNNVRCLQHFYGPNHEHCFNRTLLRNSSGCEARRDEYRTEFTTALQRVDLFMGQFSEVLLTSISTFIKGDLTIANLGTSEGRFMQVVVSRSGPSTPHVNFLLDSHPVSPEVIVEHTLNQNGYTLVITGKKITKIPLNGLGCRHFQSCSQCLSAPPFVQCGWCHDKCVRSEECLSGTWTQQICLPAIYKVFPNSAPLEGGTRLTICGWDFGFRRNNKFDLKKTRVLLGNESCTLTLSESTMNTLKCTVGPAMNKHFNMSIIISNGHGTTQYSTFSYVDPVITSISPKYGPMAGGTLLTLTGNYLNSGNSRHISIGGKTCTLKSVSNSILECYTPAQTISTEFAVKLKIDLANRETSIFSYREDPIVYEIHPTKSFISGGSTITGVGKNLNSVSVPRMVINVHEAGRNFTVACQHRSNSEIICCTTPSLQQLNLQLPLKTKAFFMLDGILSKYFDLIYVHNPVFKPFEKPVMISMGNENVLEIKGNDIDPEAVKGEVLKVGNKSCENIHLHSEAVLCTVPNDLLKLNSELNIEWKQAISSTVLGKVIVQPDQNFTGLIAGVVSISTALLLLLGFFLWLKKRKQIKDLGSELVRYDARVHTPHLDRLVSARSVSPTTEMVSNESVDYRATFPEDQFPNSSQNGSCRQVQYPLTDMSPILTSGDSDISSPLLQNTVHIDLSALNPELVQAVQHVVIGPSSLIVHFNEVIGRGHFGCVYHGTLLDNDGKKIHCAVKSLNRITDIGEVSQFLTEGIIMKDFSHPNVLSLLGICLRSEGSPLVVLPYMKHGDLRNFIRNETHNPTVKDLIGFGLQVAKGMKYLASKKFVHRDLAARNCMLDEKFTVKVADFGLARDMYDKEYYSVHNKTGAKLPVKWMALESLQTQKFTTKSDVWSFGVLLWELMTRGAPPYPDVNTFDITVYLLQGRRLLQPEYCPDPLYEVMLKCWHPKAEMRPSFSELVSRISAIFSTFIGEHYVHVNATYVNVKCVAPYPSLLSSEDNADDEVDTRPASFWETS
T1 sequence (P08581 25-932): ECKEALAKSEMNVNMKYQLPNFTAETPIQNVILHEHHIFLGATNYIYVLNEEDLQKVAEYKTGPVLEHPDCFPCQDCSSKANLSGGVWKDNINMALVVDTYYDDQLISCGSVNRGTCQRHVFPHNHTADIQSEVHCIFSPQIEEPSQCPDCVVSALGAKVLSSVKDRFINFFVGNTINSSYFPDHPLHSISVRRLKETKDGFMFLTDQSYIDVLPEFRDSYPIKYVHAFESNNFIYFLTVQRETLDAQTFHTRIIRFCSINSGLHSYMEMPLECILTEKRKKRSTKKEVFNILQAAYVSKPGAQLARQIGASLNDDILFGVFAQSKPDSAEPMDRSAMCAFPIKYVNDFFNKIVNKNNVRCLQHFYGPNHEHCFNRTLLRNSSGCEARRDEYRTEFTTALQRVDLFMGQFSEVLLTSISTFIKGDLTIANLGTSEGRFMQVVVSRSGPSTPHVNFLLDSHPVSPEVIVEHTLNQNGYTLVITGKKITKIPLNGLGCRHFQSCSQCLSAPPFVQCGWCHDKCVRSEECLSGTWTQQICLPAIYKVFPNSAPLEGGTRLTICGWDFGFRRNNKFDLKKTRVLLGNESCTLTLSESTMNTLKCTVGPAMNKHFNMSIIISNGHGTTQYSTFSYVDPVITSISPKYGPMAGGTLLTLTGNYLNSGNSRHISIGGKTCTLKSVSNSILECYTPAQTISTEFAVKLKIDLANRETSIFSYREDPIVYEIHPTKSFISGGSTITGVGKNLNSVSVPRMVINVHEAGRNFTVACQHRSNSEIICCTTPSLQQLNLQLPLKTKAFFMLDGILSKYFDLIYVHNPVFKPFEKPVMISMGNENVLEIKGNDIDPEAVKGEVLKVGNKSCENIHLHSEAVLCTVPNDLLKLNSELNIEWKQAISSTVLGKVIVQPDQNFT
T3 sequence (P08581 25-515 limits assumed): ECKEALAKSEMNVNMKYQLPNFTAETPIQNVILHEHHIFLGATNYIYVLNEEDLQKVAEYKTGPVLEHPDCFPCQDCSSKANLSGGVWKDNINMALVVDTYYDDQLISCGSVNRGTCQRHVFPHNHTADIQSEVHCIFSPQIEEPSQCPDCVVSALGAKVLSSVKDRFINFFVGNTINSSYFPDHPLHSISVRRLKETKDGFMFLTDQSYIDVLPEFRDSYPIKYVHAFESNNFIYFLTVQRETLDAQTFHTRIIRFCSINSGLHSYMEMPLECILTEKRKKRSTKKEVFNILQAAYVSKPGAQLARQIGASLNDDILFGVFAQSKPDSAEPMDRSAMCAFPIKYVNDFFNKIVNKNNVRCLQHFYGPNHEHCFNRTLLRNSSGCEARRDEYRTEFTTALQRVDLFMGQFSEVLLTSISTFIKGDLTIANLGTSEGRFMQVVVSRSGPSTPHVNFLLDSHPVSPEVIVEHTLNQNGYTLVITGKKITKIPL
T2 sequence (P08581 25-932): as the sequence (P08581 25-932) above

| Binder | EC50 [1] [nM] | IC50 [2] [nM] | Kd [3] [nM] | Activity of inhibition of MKN45 cell proliferation, IC50 [4] [nM] | Inhibition of proliferation of BxPC3 cells (CCK), IC50 [5] [nM] | Inhibition of proliferation of Caki-1 cells (CCK), IC50 [5] [nM] | Inhibition of proliferation of MKN45 cells (CCK), IC50 [5] [nM] | Inhibition of proliferation of NCI-H596 cells (CCK), IC50 [5] [nM] | Inhibition of proliferation of PC9 cells (CCK), IC50 [5] [nM] | Inhibition of proliferation of SNU5 cells (CCK), IC50 [5] [nM] | Inhibition of proliferation of NCI-H1993 cells (CCK), IC50 [5] [nM] | IC50 (nM) in MKN45 cell (cytotoxicity, ATP assay) [6] [nM] |
| --- | --- | --- | --- | --- | --- | --- | --- | --- | --- | --- | --- | --- |
| B1 | 0.13 | 1.42 | 4 | 0.52 | – | – | – | – | – | – | – | – |
| B2 | 0.39 | 1.5 | 8 | 0.55 | > 1000 | > 1000 | 0.15 | 13.7 | > 1000 | 0.1 | – | – |
| B3 | 0.2 | – | – | – | – | – | – | – | – | – | – | – |
| B4 | – | – | – | – | 6.9 | 6.5 | 0.17 | 104 | 5.6 | 0.24 | 2.8 | 0.51 |
| B5 | – | – | – | – | – | – | – | – | – | – | – | 0.59 |

Source: patent US20180110875A1 (SUZHOU SUNCADIA BIOPHARMACEUTICALS, published 2018)
